Drawing on PMC5150261, this text covers in vitro VHR phosphatase activity with purified recombinant p-ERK2 as substrate (1 μg GST-VHR with 2 μg His-HSP70, against VHR alone) and in vitro VHR phosphatase activity with pNPP as substrate (5 μg GST-VHR with 10 μg His-HSP70, against VHR alone) for one substance.

Experiment [1] has as its target VHR (as used in the GST pull-down) (not stated (human or mouse cDNA cloned)) (UniProt P51452).
For experiment [2] the target is unchanged. This is another data set of the same source.

Chain of UniProt P51452 (P51452 whole entry): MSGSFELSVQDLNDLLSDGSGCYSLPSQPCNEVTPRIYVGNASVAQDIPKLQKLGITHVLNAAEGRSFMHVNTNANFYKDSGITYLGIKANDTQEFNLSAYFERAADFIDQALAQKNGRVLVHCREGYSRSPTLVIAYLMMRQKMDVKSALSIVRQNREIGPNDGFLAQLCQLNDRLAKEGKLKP

Regarding “GST-tagged full-length HSP70 (from UniProt P0DMV8 1-641) (natural protein)”, in experiment [1], the in vitro VHR phosphatase activity with purified recombinant p-ERK2 as substrate (1 μg GST-VHR with 2 μg His-HSP70, against VHR alone) worked out at 2 fold. The same substance came in with an in vitro VHR phosphatase activity with pNPP as substrate (5 μg GST-VHR with 10 μg His-HSP70, against VHR alone) in experiment [2] of 2 fold.
